Molecular target: GLP-1 receptor expressed on the transgenic cell line GLP1R_cAMP/luc
Experiment: cell-based or functional assay

EC50, cAMP-dependent luciferase reporter in GLP-1R over-expressing cells: 6.66 pM
Substance: Dulaglutide (TRULICITY) (Fc fusion)

— patent US20200282021A1
